Sequences and labels used below:
T1: AP2-LT D1 (Plasmodium falciparum, UniProt Q8IAM1 2520-2577)
T1 sequence: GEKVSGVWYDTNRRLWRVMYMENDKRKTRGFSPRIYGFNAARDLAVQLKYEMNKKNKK

B1: CACACA_negctrl_site1036 (dsDNA)
DNA 1: ATATTGTATTATCTTTATGTACCAAAAAAAAAAAAA
DNA 2: TTTTTTTTTTTTTGGTACATAAAGATAATACAATAT
B2: CACACA_negctrl_site80 (dsDNA)
DNA 1: TTTAATAAATAAATAAATAAAATATATTAAAAACCA
DNA 2: TGGTTTTTAATATATTTTATTTATTTATTTATTAAA
B3: CACACA_negctrl_site169 (dsDNA)
DNA 1: TTATTTCTTCAGAAAAAATTAAAAAATTAAACAATA
DNA 2: TATTGTTTAATTTTTTAATTTTTTCTGAAGAAATAA
B4: CACACA_negctrl_site427 (dsDNA)
DNA 1: TTTATAAATTCTCTTTTTAAAAAATATTTTTATACT
DNA 2: AGTATAAAAATATTTTTTAAAAAGAGAATTTATAAA
B5: CACACA_negctrl_site575 (dsDNA)
DNA 1: TATTTACAAAAAAAATATAAAAAATATAAAATATAT
DNA 2: ATATATTTTATATTTTTTATATTTTTTTTGTAAATA
B6: CACACA_negctrl_site1262 (dsDNA)
DNA 1: ATATAAAGAAATTAATTTTTCAACAATAAAAATATA
DNA 2: TATATTTTTATTGTTGAAAAATTAATTTCTTTATAT
B7: CACACA_negctrl_site362 (dsDNA)
DNA 1: TTATTTTTTCTTTTTTTTCTTACCACAAAAATGGAT
DNA 2: ATCCATTTTTGTGGTAAGAAAAAAAAGAAAAAATAA
B8: CACACA_negctrl_site1347 (dsDNA)
DNA 1: ATTTTTTTTTTTTTTTTTTTTTTTTTTTAATCTGGA
DNA 2: TCCAGATTAAAAAAAAAAAAAAAAAAAAAAAAAAAT
B9: CACACA_negctrl_site154 (dsDNA)
DNA 1: TTTTAAAAAATATAATATAATATAATATAAAATAAA
DNA 2: TTTATTTTATATTATATTATATTATATTTTTTAAAA
B10: CACACA_negctrl_site283 (dsDNA)
DNA 1: ACATTCTGATGGTGATTATTAATTATTACAAAAATT
DNA 2: AATTTTTGTAATAATTAATAATCACCATCAGAATGT
B11: CACACA_negctrl_site65 (dsDNA)
DNA 1: ATTAAAAATTATATTTTATAAAAATTAAAAGAAATA
DNA 2: TATTTCTTTTAATTTTTATAAAATATAATTTTTAAT
B12: CACACA_negctrl_site1813 (dsDNA)
DNA 1: TTTTTATTCGATGATCAAATAGGTATATACAAAAAA
DNA 2: TTTTTTGTATATACCTATTTGATCATCGAATAAAAA
B13: CACACA_negctrl_site152 (dsDNA)
DNA 1: TTTTAAATAATTCGTAATTATAATTATGGAAAAAAG
DNA 2: CTTTTTTCCATAATTATAATTACGAATTATTTAAAA
B14: CACACA_negctrl_site454 (dsDNA)
DNA 1: TATTGTAATATTATATATATCTATTATGTATATAAA
DNA 2: TTTATATACATAATAGATATATATAATATTACAATA
B15: CACACA_negctrl_site941 (dsDNA)
DNA 1: ATATTACGCACAAAAAAAAAAAAAAAAAAAAAAAAA
DNA 2: TTTTTTTTTTTTTTTTTTTTTTTTTGTGCGTAATAT
B16: CACACA_negctrl_site1402 (dsDNA)
DNA 1: TTATTATTCTTAAGGATATAACAAAAAAGAAAAATT
DNA 2: AATTTTTCTTTTTTGTTATATCCTTAAGAATAATAA
B17: CACACA_negctrl_site945 (dsDNA)
DNA 1: ATATAAATAAATTAGTGAAAAAAAAAAAATTTTTTT
DNA 2: AAAAAAATTTTTTTTTTTTCACTAATTTATTTATAT
B18: CACACA_negctrl_site332 (dsDNA)
DNA 1: TCTTTTAAAAATATAAAAAGGAATATATAAAAATGT
DNA 2: ACATTTTTATATATTCCTTTTTATATTTTTAAAAGA
B19: CACACA_negctrl_site82 (dsDNA)
DNA 1: TTTTGTTTCTATATAAGATGGAAATATAAACTTGTA
DNA 2: TACAAGTTTATATTTCCATCTTATATAGAAACAAAA
B20: CACACA_negctrl_site153 (dsDNA)
DNA 1: CTTGGTAGTTTTTTCTTATAATCTAATTATTAATAA
DNA 2: TTATTAATAATTAGATTATAAGAAAAAACTACCAAG
B21: CACACA_negctrl_site1769 (dsDNA)
DNA 1: TTTTTACGTAAACAAAATAATTATATAATATTATTT
DNA 2: AAATAATATTATATAATTATTTTGTTTACGTAAAAA
B22: CACACA_negctrl_site1228 (dsDNA)
DNA 1: ATATTTTGGGGACTTTTTAAAAAAGAAGTATTAAAA
DNA 2: TTTTAATACTTCTTTTTTAAAAAGTCCCCAAAATAT
B23: CACACA_negctrl_site466 (dsDNA)
DNA 1: ATAAAAGAATTAAATAATCAAAATGATTATTTTATA
DNA 2: TATAAAATAATCATTTTGATTATTTAATTCTTTTAT
B24: CACACA_negctrl_site1736 (dsDNA)
DNA 1: ATTGAAAATTATTTACCTTCTTTGAAAGAACAAATG
DNA 2: CATTTGTTCTTTCAAAGAAGGTAAATAATTTTCAAT
B25: CACACA_negctrl_site1335 (dsDNA)
DNA 1: TAAAATTTTAACAAAAAAAAAAAAAAAAAAAGAAAA
DNA 2: TTTTCTTTTTTTTTTTTTTTTTTTGTTAAAATTTTA
B26: CACACA_negctrl_site213 (dsDNA)
DNA 1: ATAAATATATGGTTTCATTATATTAAATTCAATTTA
DNA 2: TAAATTGAATTTAATATAATGAAACCATATATTTAT
B27: CACACA_negctrl_site1416 (dsDNA)
DNA 1: TTTTTTGTACCAAAAAAAAAAAAAAGAAAAAAAAAC
DNA 2: GTTTTTTTTTCTTTTTTTTTTTTTTGGTACAAAAAA
B28: CACACA_negctrl_site87 (dsDNA)
DNA 1: TCTTTCTAAATCTTACAAATTACTAAAATATTTATA
DNA 2: TATAAATATTTTAGTAATTTGTAAGATTTAGAAAGA
B29: CACACA_negctrl_site1791 (dsDNA)
DNA 1: TTTTAAAAAAAAAAAATAAATAAATAAGATATTATC
DNA 2: GATAATATCTTATTTATTTATTTTTTTTTTTTAAAA
B30: CACACA_negctrl_site648 (dsDNA)
DNA 1: AAAAAGAAAAAATATATTCGTCTATTATAAACAATA
DNA 2: TATTGTTTATAATAGACGAATATATTTTTTCTTTTT
B31: CACACA_negctrl_site651 (dsDNA)
DNA 1: TTTGGAAAGCGTGATTTTTGACAAACACAAAAAAAA
DNA 2: TTTTTTTTGTGTTTGTCAAAAATCACGCTTTCCAAA
B32: CACACA_negctrl_site731 (dsDNA)
DNA 1: TCTAAACAAATTAATAAAATAAGTATTCAAAATTAT
DNA 2: ATAATTTTGAATACTTATTTTATTAATTTGTTTAGA
B33: CACACA_negctrl_site801 (dsDNA)
DNA 1: GATTTATATATATAAAATAATTGAATATTTTCTTTT
DNA 2: AAAAGAAAATATTCAATTATTTTATATATATAAATC
B34: CACACA_negctrl_site90 (dsDNA)
DNA 1: TTATAATATATATAAAAGAAAAAAAATTATAATATA
DNA 2: TATATTATAATTTTTTTTCTTTTATATATATTATAA
B35: CACACA_negctrl_site918 (dsDNA)
DNA 1: TTTTTTTTTTCTTTTTTTCTCATGAAATTCTAAATG
DNA 2: CATTTAGAATTTCATGAGAAAAAAAGAAAAAAAAAA
B36: CACACA_negctrl_site1344 (dsDNA)
DNA 1: TTATGTATTCATTTTTTTTAAGCACCCCAAAATGAT
DNA 2: ATCATTTTGGGGTGCTTAAAAAAAATGAATACATAA
B37: CACACA_negctrl_site1724 (dsDNA)
DNA 1: TTTTTCTTTTTTTTTTTAATAATATATAACAAATTT
DNA 2: AAATTTGTTATATATTATTAAAAAAAAAAAGAAAAA
B38: CACACA_negctrl_site500 (dsDNA)
DNA 1: TAATTAAAAAATAAAAAAAAAAAAAATTAAAACAAA
DNA 2: TTTGTTTTAATTTTTTTTTTTTTTATTTTTTAATTA
B39: CACACA_negctrl_site970 (dsDNA)
DNA 1: ATATTTTTATGTACTTCAAAAAAAAAGAAAAACAAA
DNA 2: TTTGTTTTTCTTTTTTTTTGAAGTACATAAAAATAT
B40: CACACA_negctrl_site1598 (dsDNA)
DNA 1: TATTTTAACATGTTTTCAAAAATAAAACATATAAAT
DNA 2: ATTTATATGTTTTATTTTTGAAAACATGTTAAAATA
B41: CACACA_negctrl_site624 (dsDNA)
DNA 1: TTATAATAAATATTCATATGTTCAAATATATATATA
DNA 2: TATATATATATTTGAACATATGAATATTTATTATAA

This passage reports binding signal results from publication PMC11417369, “DNA sequence and chromatin differentiate sequence-specific transcription factor binding in the human malaria parasite Plasmodium falciparum”.

The target in the data set is T1, AP2-LT D1. The data set can be described thus: gcPBM; about 25 ug protein; PBS, 1% milk, 0.2 mg/ml BSA, salmon testes DNA, 0.03% Triton X-100. The conditions noted are these: tags: N-terminal GST (pGEX-4T-1), kept; label: surface-attached array probe.
On to B1, for which the binding signal was 8.63 ln median PBM intensity, better of two orientations.

For the molecule B2, the binding signal is 8.65 ln median PBM intensity, better of two orientations.

Take B3: the binding signal was 8.53 ln median PBM intensity, better of two orientations.

On to B4, for which the binding signal was 8.65 ln median PBM intensity, better of two orientations.

On to B5, for which the binding signal was 8.62 ln median PBM intensity, better of two orientations.

As for B6, the binding signal was 8.61 ln median PBM intensity, better of two orientations.

In the case of B7, the binding signal was 8.71 ln median PBM intensity, better of two orientations.

On to B8, for which the binding signal is 8.7 ln median PBM intensity, better of two orientations.

For B9, the binding signal was 8.59 ln median PBM intensity, better of two orientations.

For the molecule B10, the binding signal is 8.72 ln median PBM intensity, better of two orientations.

As to B11, the binding signal is 8.5 ln median PBM intensity, better of two orientations.

B12: the binding signal was 8.69 ln median PBM intensity, better of two orientations.

Regarding B13, the binding signal was 8.59 ln median PBM intensity, better of two orientations.

In the case of B14, the binding signal is 8.69 ln median PBM intensity, better of two orientations.

For B15, the binding signal was 8.56 ln median PBM intensity, better of two orientations.

Turning to B16, the binding signal is 8.6 ln median PBM intensity, better of two orientations.

As to B17, the binding signal is 8.67 ln median PBM intensity, better of two orientations.

As for B18, the binding signal was 8.73 ln median PBM intensity, better of two orientations.

As to B19, the binding signal is 8.52 ln median PBM intensity, better of two orientations.

On to B20, for which the binding signal is 8.73 ln median PBM intensity, better of two orientations.

Take B21: the binding signal was 8.71 ln median PBM intensity, better of two orientations.

As to B22, the binding signal was 8.57 ln median PBM intensity, better of two orientations.

With B23, the binding signal was 8.6 ln median PBM intensity, better of two orientations.

With B24, the binding signal is 8.67 ln median PBM intensity, better of two orientations.

As for B25, the binding signal is 8.69 ln median PBM intensity, better of two orientations.

B26: the binding signal was 8.57 ln median PBM intensity, better of two orientations.

In the case of B27, the binding signal is 8.68 ln median PBM intensity, better of two orientations.

As for B28, the binding signal was 8.61 ln median PBM intensity, better of two orientations.

For B29, the binding signal was 8.55 ln median PBM intensity, better of two orientations.

Turning to B30, the binding signal is 8.72 ln median PBM intensity, better of two orientations.

As for B31, the binding signal was 8.66 ln median PBM intensity, better of two orientations.

B32: the binding signal is 8.64 ln median PBM intensity, better of two orientations.

Turning to B33, the binding signal was 8.66 ln median PBM intensity, better of two orientations.

On to B34, for which the binding signal was 8.58 ln median PBM intensity, better of two orientations.

On to B35, for which the binding signal is 8.68 ln median PBM intensity, better of two orientations.

Turning to B36, the binding signal was 8.67 ln median PBM intensity, better of two orientations.

As for B37, the binding signal was 8.68 ln median PBM intensity, better of two orientations.

As to B38, the binding signal was 8.72 ln median PBM intensity, better of two orientations.

On to B39, for which the binding signal was 8.64 ln median PBM intensity, better of two orientations.

As to B40, the binding signal was 8.55 ln median PBM intensity, better of two orientations.

Regarding B41, the binding signal was 8.56 ln median PBM intensity, better of two orientations.
